Test results: patent US10487337B2, “Methods for monocot plant improvement” (Agresearch Limited, priority 2014, dated 2019)

T1: BZR1 (Arabidopsis thaliana, UniProt Q8S307)
T1 construct: expressed in transfected cells; host or cells: Nicotiana benthamiana leaves (Agrobacterium infiltration)
T1 sequence (Q8S307 1-336): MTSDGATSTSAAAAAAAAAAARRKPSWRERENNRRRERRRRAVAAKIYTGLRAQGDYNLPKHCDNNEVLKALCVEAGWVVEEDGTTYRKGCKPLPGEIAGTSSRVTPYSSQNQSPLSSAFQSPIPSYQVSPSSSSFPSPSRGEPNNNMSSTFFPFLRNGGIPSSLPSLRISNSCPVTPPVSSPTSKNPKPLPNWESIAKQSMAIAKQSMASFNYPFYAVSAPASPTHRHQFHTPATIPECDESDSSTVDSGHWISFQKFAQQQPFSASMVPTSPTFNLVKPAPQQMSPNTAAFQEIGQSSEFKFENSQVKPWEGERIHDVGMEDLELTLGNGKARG

B1: Musa acuminate PPD: PEAPOD protein of Musa acuminate, SEQ ID NO: 108/114 (protein, listed as Musa acuminata)
chain: MNPGETTPPSPLDKPLAELTEEDIAQLTREDCRRFLKAKGMRRPSWNKSQAIQQVISLKALLEGRPGCDDCPAGGGILQKLLTSSPSEPLSPPQDSPPPAPKEGGSGSQPLAKEPSPYRRRDPIPPPYSAGNPTCQTPIAGADLPHPPEKRCPSPRLTAEVPVGQMTIFYDGMVNVYDGVSADQARSIMELAASPVCFDDPTGAFSPARPPAFRFPPGLPRPAPVPTAPSFVGTFPISPAGKRCYSYCSFRSSVSLLTTTEGPTSRKASLQRYLEKRKDRYGHLPTESILLVSGSGGGSAKGELRGHPFEGKPIPNPLLGLDSTRTGHHHHHHGS
B2: Selaginella moellendorffii PPD: PEAPOD protein of Selaginella moellendorffii, SEQ ID NO: 110/116 (protein, listed as Selaginella moellendorffii)
chain: MSSMVDFLGIEEKVSTSVSAERLKKLEELTDEDVMQLTREDCRRYLKEKGMRRPSWNKAQAVQQLLSLKSLCDPSPASSGAAKRSPSPPLDEAPAKKPMAMTSIDLKAAAAVDAANLTMFYDGAVSVFDDVSPDKASLFPLAYAIMLLAGNVKSWPSINVAANTNKVVISSYELPQARKASLQRFLQRRREKTAKEAASKGNSNKSPCHGESSGKHASDATDPATSPLLTEVSSGSGGGSAKGELRGHPFEGKPIPNPLLGLDSTRTGHHHHHHGS

Key:
BZR1 = molecular target: T1, BZR1; assay: BiFC interaction with BZR1 in Nicotiana benthamiana leaves; assay type: cell-based; settings: fully expanded leaves, co-expressed with cYFP-BZR1
Text: The binary BiFC-Gateway YFP vectors pDEST-VYNE(R)^GW (Venus aa 1-173) and pDEST-VYCE(R)^GW (Venus aa 156-239) with N-terminal fusions, were used to construct the following vectors; pDESTnYFP-BZR1, pDESTnYFP-NINJA, pDESTnYFP-PPD1, pDESTcYFP-BZR1, pDESTcYFP-PPD1, pDESTcYFP-PPD1Δppd, pDESTcYFP-PPD1Δtify and pDESTcYFP-PPD1Δjas*. For transient in planta expression of proteins interacting with PPD1 or BZR, NINJA and TPL were Gateway® sub-cloned into pRSh1, to construct pRSh1-NINJA and pRSh1-TPL. Plasmids for co-immunoprecipitation: A synthesised DNA construct encoding PPD1 with a 3×c-myc C-terminal fusion was sub-cloned into pRSh1 to produce pRSh1-PPD1-3×c-myc, while the NINJA cDNA sequence was sub-cloned into pB7FWG2,0 (Karimi et al 2002, Trends Plant Sci. 7, 193-195) to construct pB7FWG2-NINJA-GFP. When expressed these constructs produced proteins listed in sequences 60, 62, 70 71 72 73 74 75 76 77 78 79: including TOPLESS (TPL), NINJA, Bimolecular Fluorescence (BiFC) nYFP, BiFC cYFP, BiFC nYFP-NINJA, BiFC nYFP-BZR1, BiFC cYFP-PPD1, BiFC cYFP-NINJA, BiFC cYFP-BZR1, BiFC cYFP-PPD1-ppd, BiFC cYFP-PPD1-tify, BiFC cYFP-PPD1-jas*.
Transient BiFC experiments were performed using combinations of pDESTnYFP and pDESTcYFP plasmids, with or without plasmids for the expression of NINJA (pRSh1-NINJA) or TPL (pRSh1-TPL) and Agrobacterium-infiltration of Nicotiana benthamiana leaves. For infiltration Agrobacterium tumefaciens GV3101 strains containing the binary vectors were re-suspended from plates and prepared for transformation as described for the LUC assay. All YFP and expression strains were mixed in ratios of 1:1 (vol/vol) with the addition of strain P19 at 1/10th volume. Five leaf discs were sampled from each infiltrated leaf after 40 h. Two hours prior to sampling for microscopic fluorescence observations leaves were infiltrated with a 1 μg/ml DAPI solution to stain nuclei. YFP fluorescence and DAPI staining was detected using an Olympus Fluoview FV10i confocal laser scanning microscope. Each experiment was repeated twice.

ryegrass plants [1] = assay: Leaf biomass analysis of grass transformants; assay type: in vivo; settings: constitutive promoter, observed leaf growth, approximately 6 weeks
Description: (§1) An equal number (typically 4-10) of tillers were taken from WT and ryegrass plants transformed with Arabidopsis PPD under one of two green tissue promoters. Tillers were planted into plastic grow bags containing potting mix and pruned to be of equal height. […] The increase in leaf/shoot biomass can be quantified removing the attached above ground portion (leaves and shoots) and drying them at 65° C. for 48 hr then weighing the dry weights.
as §1, with “a constitutive promoter.” for “one of two green tissue promoters.”, “was” for “can be”, “weights (Table 2).” for “weights.”

ryegrass plants [2] = assay: Root biomass analysis of grass transformants; assay type: in vivo; settings: constitutive promoter, root growth beyond the grow bag, approximately 6 weeks
Description: as §1, with “three root” for “two green tissue”, “root” for “leaf/shoot”, “was” for “can be”, “the roots” for “them”, “weights (Tables 3 and 4)” for “weights.”
as §1, with “a constitutive promoter.” for “one of two green tissue promoters.”, “root” for “leaf/shoot”, “was” for “can be”, “the roots” for “them”, “weights (Table 5).” for “weights.”

Arabidopsis Δppd mutant = assay: Complementation of the Arabidopsis Δppd mutant leaf phenotype; assay type: in vivo; settings: CaMV35s promoter, Arabidopsis thaliana ecotype Landsberg erecta, FIG. 13
Text: The functionality of any PEAPOD sequence can be confirmed by complementation of the Arabidopsis Δppd mutant leaf phenotype. Complementation of the Arabidopsis Δppd mutant leaf phenotype was first used to identify the Arabidopsis PPD gene (White 2006). This was seen by a restoration of the wild type flattened leaf phenotype and normal rosette shape as opposed to the domed leaf and the twisting of the rosette to a “propeller” phenotype.
Arabidopsis thaliana (L.) Heynh ecotype Ler can be used as wild-type (WT). The Δppd loss of function deletion mutant (with PPD1 and PPD2 deleted) is as previously described in White 2006, PNAS 103, 13238-13243.
Plants are grown in a temperature-controlled glasshouse at a continuous 21° C. or in a controlled environment cabinet at 23° C. in 16-h light_8-h dark cycles.
Constructs above can be transformed into Arabidopsis by the floral dip infiltration method (Clough and Bent, 1998, Plant J 16, 735-43). The Δppd line is transformed to express the PPD polypeptides by standard techniques. Transgenic plants are confirmed by standard PCR analysis techniques with a combination of transgene-specific and T-DNA primers.
Complementation of the Δppd line to produce a wild-type leaf and rosette phenotype in T1 seedlings (the off-spring of the infiltrated plant) confirms PEAPOD functionality of the introduced gene, which can be shown in photographs.

| Molecule | interaction with BZR1 (BZR1) | leaf biomass/growth/length/branching compared to WT plants (ryegrass plants [1]) | root biomass/growth/length/branching compared to WT plants (ryegrass plants [2]) | PEAPOD functionality by complementation of the Δppd deletion mutant (Arabidopsis Δppd mutant) |
| --- | --- | --- | --- | --- |
| nYFP-PPD1: BiFC fusion of PPD1 with the N-terminal Venus YFP fragment | no interaction was observed | – | – | – |
| B1 | – | increase in leaf biomass/growth/length/branching | increase in root biomass/growth/length/branching | functionally equivalent |
| B2 | – | increase in leaf biomass/growth/length/branching | increase in root biomass/growth/length/branching | functionally equivalent |
